According to the supplement of paper PMC7877785:
± gives the uncertainty stated by the source.

Test: self-splicing fitness, log relative to wild type (ln ratio); higher = more splicing; Tetrahymena group I intron in knt gene, E. coli kanamycin selection, DiMSum; sequences stand for … in CUCUCU…GGAGGGAAAAGUUAUCAGGCAUGCACCUGGUAGCUAGUCUUUAAACCAAUAGAUUGCAUCGGUUUAAAAGGCAAGACCGUCAAAUUGCGGGAAAGGGGUCAACAGCCGUUCAGUACCAAGUCUCAGGGGAAACUUUGAGAUGGCCUUGCAAAGGGUAUGGUAAUAAGCUGACGGACAUGGUCCUAACCACGCAGCCAAGUCCUAAGUCAACAGAUCUUCUGUUGAUAUGGAUGCAGUUCACAGACUAAAUGUCGGUCGGGGAAGAUGUAUUCUUCUCAUAAGAUAUAGUCGGACCUCUCCUUAAUGGGAGCUAGCGGAUGAAGUGAUGCAACACUGGAGCCGCUGGGAACUAAUUUGUAUGCGAAAGUAUAUUGAUUAGUUUUGGAGUACUCGUGGUCG
Method in brief: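 Six replicate transformations of E. coli BL21(DE3) with a pET-22b(+) library were grown overnight at 37°C or 30°C. The library randomised all eight P1ex-region intron nucleotides, the intron lying in the knt kanamycin-resistance gene, and plates were LB agar with or without 25 μg/mL kanamycin plus 100 μg/mL carbenicillin, 50 μM IPTG and 0.2% rhamnose. Pooled colonies were amplicon-sequenced on an Illumina HiSeq 2500, and fitness is the DiMSum error-weighted combination of wild-type-normalised replicate fold changes, kanamycin versus none.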

Row | Sequence | self-splicing fitness (ln) (30 °C) | self-splicing fitness (ln) (37 °C)
1 | AGGCAGCAAUAUUACGAAUU | -1.29 ± 0.064 | -1.4 ± 0.093
2 | AGGCAGCAAUAUUACGACUG | -1.99 ± 0.14 | -2.18 ± 0.18
3 | AGGCAGCAAUAUUACGACUU | -0.0645 ± 0.048 | 0.187 ± 0.065
4 | AGGCAGCAAUAUUACGAGAU | -3.01 ± 0.15 | -2.26 ± 0.2
5 | AGGCAGCAAUAUUACGAGCU | -0.501 ± 0.1 | -0.299 ± 0.13
6 | AGGCAGCAAUAUUACGAGGA | -3.31 ± 0.28 | -2.55 ± 0.26
7 | AGGCAGCAAUAUUACGAGUA | -1.94 ± 0.15 | -1.65 ± 0.14
8 | AGGCAGCAAUAUUACGAUGA | -1.23 ± 0.13 | 0.113 ± 0.14
9 | AGGCAGCAAUAUUACGCAGC | -4.21 ± 0.42 | -2.84 ± 0.31
10 | AGGCAGCAAUAUUACGCAGG | -1.39 ± 0.084 | -1.17 ± 0.1
11 | AGGCAGCAAUAUUACGCCAC | -3.45 ± 0.18 | -2.48 ± 0.3
12 | AGGCAGCAAUAUUACGCGAU | -4.3 ± 0.42 | -1.93 ± 0.21
13 | AGGCAGCAAUAUUACGCUCU | -2.31 ± 0.34 | –
14 | AGGCAGCAAUAUUACGGCUG | -2.3 ± 0.35 | –
15 | AGGCAGCAAUAUUACGUCAG | -1.92 ± 0.12 | -0.461 ± 0.12
16 | AGGCAGCAAUAUUACGUGCA | -1.01 ± 0.1 | -0.142 ± 0.14
17 | AGGCAGCAAUAUUACGUGCG | -0.971 ± 0.082 | -0.24 ± 0.11
18 | AGGGAGCAAUAUUACGACAA | -3.29 ± 0.29 | -3.44 ± 0.42
19 | AGGGAGCAAUAUUACGAGCA | -3.26 ± 0.25 | -2.64 ± 0.21
20 | AGGGAGCAAUAUUACGAGGU | -2.64 ± 0.17 | -3.55 ± 0.31
21 | AGGGAGCAAUAUUACGAUUC | -3.76 ± 0.35 | -2.41 ± 0.29
22 | AGGGAGCAAUAUUACGCGGU | -3.98 ± 0.21 | -3.05 ± 0.24
23 | AGGGAGCAAUAUUACGCGUC | -3.15 ± 0.29 | -2.51 ± 0.37
24 | AGGGAGCAAUAUUACGGCAU | -3.2 ± 0.2 | -2.46 ± 0.23
25 | AGGGAGCAAUAUUACGGCCA | -2.33 ± 0.33 | -0.91 ± 0.31

Row | Sequence | self-splicing fitness (ln) (30 °C) | self-splicing fitness (ln) (37 °C)
26 | AGGGAGCAAUAUUACGGCGA | -3.35 ± 0.4 | -2.62 ± 0.44
27 | AGGGAGCAAUAUUACGGCUC | -2.18 ± 0.24 | –
28 | AGGGAGCAAUAUUACGGGAG | -3.56 ± 0.2 | -2.13 ± 0.23
29 | AGGGAGCAAUAUUACGGUAU | – | -0.384 ± 0.39
30 | AGGGAGCAAUAUUACGUAUC | -2.16 ± 0.25 | –
31 | AGGGAGCAAUAUUACGUAUU | -2.96 ± 0.18 | -2.15 ± 0.21
32 | AGGGAGCAAUAUUACGUCUC | -1.79 ± 0.32 | -2.54 ± 0.48
33 | AGGGAGCAAUAUUACGUUCA | -1.31 ± 0.18 | -1.49 ± 0.19
34 | AGGGAGCAAUAUUACGUUUU | -2.81 ± 0.21 | -2.22 ± 0.27
35 | AGGUAGCAAUAUUACGAAAA | -2.61 ± 0.031 | -2.01 ± 0.041
36 | AGGUAGCAAUAUUACGAAAU | -2.048 ± 0.018 | -1.19 ± 0.035
37 | AGGUAGCAAUAUUACGAACU | 0.0152 ± 0.016 | 0.016 ± 0.034
38 | AGGUAGCAAUAUUACGAAGC | -3.821 ± 0.036 | -2.3 ± 0.042
39 | AGGUAGCAAUAUUACGAAUG | -3.277 ± 0.026 | -1.83 ± 0.037
40 | AGGUAGCAAUAUUACGAGAC | -3.88 ± 0.039 | -2.69 ± 0.044
41 | AGGUAGCAAUAUUACGAUAA | -1.65 ± 0.018 | -0.626 ± 0.035
42 | AGGUAGCAAUAUUACGCAAU | -1.959 ± 0.017 | -1.03 ± 0.034
43 | AGGUAGCAAUAUUACGCAGU | -2.979 ± 0.021 | -1.68 ± 0.035
44 | AGGUAGCAAUAUUACGCCAC | -3.97 ± 0.058 | -2.98 ± 0.069
45 | AGGUAGCAAUAUUACGCCCU | -3.56 ± 0.048 | -2.45 ± 0.058
46 | AGGUAGCAAUAUUACGCGGA | -2.062 ± 0.019 | -1.09 ± 0.033
47 | AGGUAGCAAUAUUACGCUGA | -2.032 ± 0.019 | -1.14 ± 0.034
48 | AGGUAGCAAUAUUACGCUGU | -3.789 ± 0.033 | -2.97 ± 0.043
49 | AGGUAGCAAUAUUACGCUUA | -1.2 ± 0.017 | -0.467 ± 0.034
50 | AGGUAGCAAUAUUACGGAGA | -3.57 ± 0.037 | -2.82 ± 0.043

Row | Sequence | self-splicing fitness (ln) (30 °C) | self-splicing fitness (ln) (37 °C)
51 | AGGUAGCAAUAUUACGGAGC | -4.047 ± 0.034 | -2.5 ± 0.04
52 | AGGUAGCAAUAUUACGGAGU | -3.487 ± 0.021 | -1.72 ± 0.034
53 | AGGUAGCAAUAUUACGGGAA | -2.69 ± 0.027 | -2.11 ± 0.038
54 | AGGUAGCAAUAUUACGGGUA | -2.347 ± 0.022 | -1.31 ± 0.034
55 | AGGUAGCAAUAUUACGGUAA | -2.123 ± 0.021 | -1.2 ± 0.034
56 | AGGUAGCAAUAUUACGGUGC | -3.382 ± 0.029 | -1.98 ± 0.038
57 | AGGUAGCAAUAUUACGGUGG | -3.787 ± 0.027 | -2.8 ± 0.04
58 | AGGUAGCAAUAUUACGGUUC | -2.769 ± 0.022 | -1.51 ± 0.036
59 | AGGUAGCAAUAUUACGUCAG | -2.334 ± 0.019 | -1.42 ± 0.035
60 | AGGUAGCAAUAUUACGUCCC | -1.02 ± 0.025 | -0.535 ± 0.042
61 | AGGUAGCAAUAUUACGUCCU | -3.01 ± 0.027 | -2.01 ± 0.041
62 | AGUAAGCAAUAUUACGAAUC | -4.12 ± 0.42 | -2.86 ± 0.34
63 | AGUAAGCAAUAUUACGAAUU | -2.92 ± 0.42 | –
64 | AGUAAGCAAUAUUACGACAA | -1.35 ± 0.17 | -0.886 ± 0.17
65 | AGUAAGCAAUAUUACGAGCG | -0.847 ± 0.072 | -0.0455 ± 0.11
66 | AGUAAGCAAUAUUACGAGGC | -2.59 ± 0.34 | –
67 | AGUAAGCAAUAUUACGAGGU | -2.56 ± 0.18 | -2.89 ± 0.22
68 | AGUAAGCAAUAUUACGAUAG | -3.75 ± 0.33 | -2.86 ± 0.31
69 | AGUAAGCAAUAUUACGAUGA | -2.3 ± 0.16 | -1.03 ± 0.13
70 | AGUAAGCAAUAUUACGCAGA | -3.22 ± 0.36 | -2.67 ± 0.29
71 | AGUAAGCAAUAUUACGCAUC | -4.12 ± 0.29 | -1.48 ± 0.27
72 | AGUAAGCAAUAUUACGCCGA | -1.31 ± 0.45 | -0.709 ± 0.46
73 | AGUAAGCAAUAUUACGCUGG | -3.89 ± 0.23 | -2.39 ± 0.22
74 | AGUAAGCAAUAUUACGCUUA | -3.07 ± 0.16 | -1.44 ± 0.15
75 | AGUAAGCAAUAUUACGGAGC | -2.93 ± 0.37 | –

Row | Sequence | self-splicing fitness (ln) (30 °C) | self-splicing fitness (ln) (37 °C)
76 | AGUAAGCAAUAUUACGGGUA | -2.7 ± 0.15 | -1.56 ± 0.13
77 | AGUAAGCAAUAUUACGGUCG | -1.95 ± 0.083 | -0.559 ± 0.087
78 | AGUAAGCAAUAUUACGUACC | -0.632 ± 0.16 | 0.366 ± 0.21
79 | AGUAAGCAAUAUUACGUACG | -1.51 ± 0.11 | 0.135 ± 0.14
80 | AGUAAGCAAUAUUACGUCAA | -3.78 ± 0.21 | -2 ± 0.15
81 | AGUAAGCAAUAUUACGUCGU | -2.12 ± 0.13 | -0.496 ± 0.12
82 | AGUAAGCAAUAUUACGUCUC | -3.31 ± 0.25 | -2.96 ± 0.47
83 | AGUAAGCAAUAUUACGUCUG | -3.21 ± 0.17 | -1.49 ± 0.12
84 | AGUAAGCAAUAUUACGUGCG | -1.27 ± 0.088 | -0.396 ± 0.097
85 | AGUAAGCAAUAUUACGUUAG | -1.71 ± 0.33 | –
86 | AGUAAGCAAUAUUACGUUGG | -3.59 ± 0.48 | -2.64 ± 0.36
87 | AGUCAGCAAUAUUACGAUUG | -1.38 ± 0.11 | -0.258 ± 0.15
88 | AGUCAGCAAUAUUACGCGAU | -3.56 ± 0.24 | -1.01 ± 0.14
89 | AGUCAGCAAUAUUACGCGGG | -2.8 ± 0.16 | -1.06 ± 0.2
90 | AGUCAGCAAUAUUACGGAGC | -2.57 ± 0.12 | -1.74 ± 0.13
91 | AGUCAGCAAUAUUACGGAGU | -1.63 ± 0.062 | -0.578 ± 0.073
92 | AGUCAGCAAUAUUACGGCAA | -0.287 ± 0.083 | -0.215 ± 0.081
93 | AGUCAGCAAUAUUACGGUAA | -2.02 ± 0.12 | -1.19 ± 0.099
94 | AGUCAGCAAUAUUACGGUUA | -1.15 ± 0.087 | -0.533 ± 0.073
95 | AGUCAGCAAUAUUACGUAAG | -1.61 ± 0.1 | -0.51 ± 0.11
96 | AGUCAGCAAUAUUACGUAUG | -3.48 ± 0.18 | -2.43 ± 0.19
97 | AGUCAGCAAUAUUACGUAUU | -1.08 ± 0.079 | -0.181 ± 0.094
98 | AGUCAGCAAUAUUACGUCCU | -0.258 ± 0.1 | -0.279 ± 0.15
